Data set [1] addresses T1, Hfq wt (Salmonella, UniProt P0A1R0 1-102). Kind of data set: EMSA; 3 nM Hfq hexamer; 24 mM Tris-HCl pH 7.5, 50 mM NaCl, 50 mM NH4Cl, 50 mM KCl, 0.5 mM EDTA, 2 mM MgCl2, 5% glycerol, room temperature, 1 h; 6% native gel in 1x THEM2. Conditions: protein: recombinant; tags: C-terminal His6; chain copies: 6; label: 32P.
Data set [2] addresses T1, Hfq wt. Description: EMSA; 24 mM Tris-HCl pH 7.5, 50 mM NaCl, 50 mM NH4Cl, 50 mM KCl, 0.5 mM EDTA, 2 mM MgCl2, 5% glycerol, room temperature, 1 h; 6% native gel in 1x THEM2. Conditions: protein: recombinant, tags: C-terminal His6, chain copies: 6, label: 5'-32P. For orientation: A gel shift assay detects complexes by their altered migration in electrophoresis.
Data set [3] has as its target T2, Hfq Y25D (Salmonella, UniProt P0A1R0 1-102, Y25D). The description is as above. As to conditions: protein: recombinant; tags: C-terminal His6; chain copies: 6; label: 5'-32P.
Data set [4] deals with T3, Hfq R16A (Salmonella, UniProt P0A1R0 1-102, R16A). The description is as above. Conditions: protein: recombinant; tags: C-terminal His6; chain copies: 6; label: 5'-32P.
Data set [5] concerns the target T4, Hfq K56A (Salmonella, UniProt P0A1R0 1-102, K56A). The data set is described as above. As to conditions: protein: recombinant; tags: C-terminal His6; chain copies: 6; label: 5'-32P.
Data set [6] has as its target T1, Hfq wt. Description: EMSA; specific site (Ks); 24 mM Tris-HCl pH 7.5, 50 mM NaCl, 50 mM NH4Cl, 50 mM KCl, 0.5 mM EDTA, 2 mM MgCl2, 5% glycerol, room temperature, 1 h; 6% native gel in 1x THEM2. As to conditions: protein: recombinant, tags: C-terminal His6, chain copies: 6, label: 5'-32P.
Data set [7] deals with T1, Hfq wt. Kind of data set: EMSA; two nonspecific sites (Kns); 24 mM Tris-HCl pH 7.5, 50 mM NaCl, 50 mM NH4Cl, 50 mM KCl, 0.5 mM EDTA, 2 mM MgCl2, 5% glycerol, room temperature, 1 h; 6% native gel in 1x THEM2. As to conditions: protein: recombinant, tags: C-terminal His6, chain copies: 6, label: 5'-32P.
The target in data set [8] is T2, Hfq Y25D. Kind of data set: EMSA; tightest complex; 24 mM Tris-HCl pH 7.5, 50 mM NaCl, 50 mM NH4Cl, 50 mM KCl, 0.5 mM EDTA, 2 mM MgCl2, 5% glycerol, room temperature, 1 h; 6% native gel in 1x THEM2. As to conditions: protein: recombinant; tags: C-terminal His6; chain copies: 6; label: 5'-32P; five stem-loops SL1-SL5.
The target of data set [9] is T3, Hfq R16A. The description is as above. Conditions: protein: recombinant; tags: C-terminal His6; chain copies: 6; label: 5'-32P; five stem-loops SL1-SL5.
Data set [10] addresses T4, Hfq K56A. The description is as above. Conditions: protein: recombinant; tags: C-terminal His6; chain copies: 6; label: 5'-32P; five stem-loops SL1-SL5.

Substitutions are numbered along the chain they refer to.

B1: ompD-18M (ssRNA)
RNA: GCCGAGGUAUAUAACAAA
With B1, the binding result in the data set with Hfq wt [1] is reported as “no binding”.

B2: ompD-187-SL2mut (structured_RNA)
RNA: GGCCAUUGACAAACGCCUCGUUUAACAAUGGUUGAGGAAACACGCUUUGAUAAUUCUAGGGCUUAUUUUUAUGAUGCUUAAGUUAGUGGCAGUGGCAGUGACUUCCCUGUUGGCAGCAGGCGUUGUAAAUGCAGCCGAGGUAUAUAACAAAGACGGCAAUAAACUGGAUCUGUACGGUAAAGUUCACG
As for B2, the binding signal with Hfq wt [2] was approximately 3 fold weaker than ompD-187; with Hfq Y25D [3], ~1 fold vs same Hfq mutant to ompD-187 (similar); with Hfq R16A [4] it was ~10 fold weaker than R16A to ompD-187; in the data set with Hfq K56A [5], ~1 fold vs same Hfq mutant to ompD-187 (similar).

B3: ompD-93-187 (structured_RNA)
RNA: GGCAGUGACUUCCCUGUUGGCAGCAGGCGUUGUAAAUGCAGCCGAGGUAUAUAACAAAGACGGCAAUAAACUGGAUCUGUACGGUAAAGUUCACG
For the molecule B3, the binding signal in the data set with Hfq wt [2] (SL3, SL4, SL5) is approximately 6 fold weaker than ompD-187.

B4: ompD-187 ARN-3 (structured_RNA)
RNA: GCCAUUGACAAACGCCUCGUUUAACAAUGGUUGAGGAAACACGCUUUGAUAUUAUAAGGAUUAUUAAAAUGAAACUUAAGUUAGUGGCAGUGGCAGUGACUUCCCUGUUGGCAGCAGGCGUUGUAAAUGCAGCCGAGGUAUAUAACAAAGACGGCAAUAAACUGGAUCUGUACGGUAAAGUUCACG
For B4, the values for the Kd with Hfq wt [6] and with Hfq wt [7] were 0.93 ± 0.24 nM and 2.9 ± 0.35 nM, respectively. The values for the binding signal with Hfq Y25D [3], with Hfq R16A [4] and with Hfq K56A [5] were ~1 fold vs same Hfq mutant to ompD-187 (similar), ~6 fold weaker than R16A to ompD-187 and ~1 fold vs same Hfq mutant to ompD-187 (similar), respectively.

B5: SdsR-18 (ssRNA)
RNA: GCCUGCAUUAAUGCCAAC
On to B5, for which the binding result with Hfq wt [1] is given as “no binding”.

B6: ompD-187 (structured_RNA)
RNA: GCCAUUGACAAACGCCUCGUUUAACAAUGGUUGAGGAAACACGCUAAGAAAAUUAUAAGGAUUAUUAAAAUGAAACUUAAGUUAGUGGCAGUGGCAGUGACUUCCCUGUUGGCAGCAGGCGUUGUAAAUGCAGCCGAGGUAUAUAACAAAGACGGCAAUAAACUGGAUCUGUACGGUAAAGUUCACG
In the case of B6, the Kd with Hfq wt [6] (five stem-loops SL1-SL5) worked out at 0.61 ± 0.17 nM; in the data set with Hfq wt [7] (five stem-loops SL1-SL5), 1.9 ± 0.58 nM. Further, the binding signal is approximately 3 fold weaker than wt Hfq in the data set with Hfq Y25D [8], ~1 fold vs wt Hfq (not changed) with Hfq R16A [9] and approximately 2 fold weaker than wt Hfq with Hfq K56A [10].

B7: ompD-187 ARN-5+6 (structured_RNA)
RNA: B6 RNA with A148G, A150G, A157C, A160U, A161C
Take B7: in the data set with Hfq wt [6], the Kd stood at 0.81 ± 0.09 nM.

B8: ompD-187 ARN-1 (structured_RNA)
RNA: B6 RNA with A23C, A24G
In the case of B8, the equilibrium dissociation constant (Kd) turned out to be 0.77 ± 0.097 nM with Hfq wt [6] and 3 ± 0.46 nM with Hfq wt [7].

B9: ompD-187 ARN-6 (structured_RNA)
RNA: B6 RNA with A157C, A160U, A161C
As for B9, the Kd amounted to 0.82 ± 0.075 nM with Hfq wt [6] and 2.4 ± 0.29 nM in the data set with Hfq wt [7].

B10: ompD-187 ARN-5 (structured_RNA)
RNA: B6 RNA with A148G, A150G
In the case of B10, the Kd in the data set with Hfq wt [6] was 0.89 ± 0.093 nM; with Hfq wt [7], 3 ± 0.46 nM.

B11: ompD-187 ARN-2 (structured_RNA)
RNA: B6 RNA with A34U, G35U, A38U
On to B11, for which the dissociation constant (Kd) is 0.85 ± 0.003 nM with Hfq wt [6] and 2.2 ± 0.25 nM with Hfq wt [7].

B12: RybB-16 (ssRNA)
RNA: GCCACUGCUUUUCUUU
Take B12: the binding result with Hfq wt [1] is on record as “no binding”.

B13: ompD-1-95 (structured_RNA)
RNA: GCCAUUGACAAACGCCUCGUUUAACAAUGGUUGAGGAAACACGCUAAGAAAAUUAUAAGGAUUAUUAAAAUGAAACUUAAGUUAGUGGCAGUGGC
As for B13, the binding signal with Hfq wt [2] (SL1, SL2) is ~1 fold vs ompD-187 (similar).

B14: ompD-21R (ssRNA)
RNA: UAAGUUAGUGGCAGUGGCAGU
For B14, the binding result with Hfq wt [1] is recorded as “no binding”.

B15: ompD-19S (ssRNA)
RNA: CCUGUUGGCAGCAGGCGUU
For the molecule B15, in the data set with Hfq wt [1], the binding result is listed as “no binding”.

B16: ompD-35-131 (structured_RNA)
RNA: GGAAACACGCUAAGAAAAUUAUAAGGAUUAUUAAAAUGAAACUUAAGUUAGUGGCAGUGGCAGUGACUUCCCUGUUGGCAGCAGGCGUUGUAAAUGC
As for B16, in the data set with Hfq wt [2] (SL2, SL3), the binding signal was ~4 fold tighter than ompD-187.

B17: MicC-12 (ssRNA)
RNA: GUUAUAUGCCUU
As for B17, in the data set with Hfq wt [1], the binding result was “no binding”.

For orientation: Kd means the free concentration of one partner at which half of the binding sites on the other are occupied at equilibrium, for simple one-to-one binding.

The values above are taken from article PMC4911921, “Hfq assists small RNAs in binding to the coding sequence of ompD mRNA and in rearranging its structure”.
